In article PMC10314757:

What was measured:
FcγRIIIb (CD16b) = FcγRIIIb (CD16b) (UniProt O75015); assay: SPR; BIAcore X100; receptor (20 µg/mL) captured by anti-His-tag antibodies on a CM5 chip, each receptor on its own chip; charge variant as analyte, 2.5 µM to 40 µM, single-cycle; HBS-EP buffer (10 mM HEPES pH 7.4, 150 mM NaCl, 50 µM EDTA, 0.005% P20)
FcγRIIIa (CD16a) = FcγRIIIa (CD16a) (UniProt P08637); assay: as above

With “trastuzumab proposed biosimilar, acidic charge variants (acidic peak) (antibody)” the Kd (FcγRIIIb (CD16b)) was 14.3 µM, the koff (FcγRIIIb (CD16b)) was 0.82 s⁻¹ and the kon (FcγRIIIb (CD16b)) was 106000 M⁻¹ s⁻¹.

In the case of “trastuzumab proposed biosimilar, acidic charge variants (acidic peak) (antibody; other documents disagree on this pair)”, the koff (FcγRIIIa (CD16a)) is reported as 0.08 s⁻¹ and the kon (FcγRIIIa (CD16a)) is reported as 102000 M⁻¹ s⁻¹.

With “trastuzumab proposed biosimilar, basic charge variants (basic peak) (antibody)” the koff (FcγRIIIb (CD16b)) was 0.33 s⁻¹ and the kon (FcγRIIIb (CD16b)) was 25600 M⁻¹ s⁻¹.

“trastuzumab proposed biosimilar, basic charge variants (basic peak) (antibody; other documents disagree on this pair)” showed a koff (FcγRIIIa (CD16a)) of 0.05 s⁻¹ and a kon (FcγRIIIa (CD16a)) of 31300 M⁻¹ s⁻¹.

For “trastuzumab proposed biosimilar, main charge variant (main peak) (antibody)”, the koff (FcγRIIIb (CD16b)) was 0.34 s⁻¹ and the kon (FcγRIIIb (CD16b)) was 15400 M⁻¹ s⁻¹.

Work on “trastuzumab proposed biosimilar, main charge variant (main peak) (antibody; other documents disagree on this pair)” yielded a koff (FcγRIIIa (CD16a)) of 0.09 s⁻¹ and a kon (FcγRIIIa (CD16a)) of 36600 M⁻¹ s⁻¹.
